Assay results: patent US20060045884A1, “Vaccines for autoimmune and infectious disease” (Board of Regents, priority 2004, published 2006)

Target: HLA-A2.1 heavy chain with I125-labeled β2-microglobulin (heterotrimer dissociation assay) (human)
Test: dissociation of 125I-β2-microglobulin from the HLA-A2.1/peptide/β2m heterotrimer, HPLC gel filtration

For “HTLV-1 Tax peptide (aa 11-19) (from UniProt P03409 11-19) (peptide; other documents disagree on this pair)”, the T1/2 was 133 h.
